What was measured:
[1] = molecular target: DNA-binding domain of Listeria monocytogenes DegU (lmDegUDBD) (Listeria monocytogenes ATCC 15313) (UniProt Q6DL91); assay: cross-linking; 5 μg protein in 20 mM Hepes pH 7.4, 300 mM sodium chloride, 5 mM β-mercaptoethanol with EDC and sulfo-NHS, 5 min at room temperature; SDS-PAGE, Coomassie staining
[2] = molecular target: DNA-binding domain of Listeria monocytogenes DegU (lmDegUDBD) (Listeria monocytogenes ATCC 15313) (UniProt Q6DL91); assay: crystal structure; lmDegUDBD alone, two chains (A and B) in the asymmetric unit; crystals from 22% PEG 3350, 0.1 M Tris pH 8.0, 18 °C; 2.39 Å
lmDegUFL D55N = lmDegUFL D55N (Listeria monocytogenes ATCC 15313, UniProt Q6DL91 1-228, D55N); assay: fluorescence polarization; comparable to lmDegUFL; details: protein: recombinant; tags: C-terminal His6; chain copies: 2; blunt
lmDegUDBD = molecular target: T1, lmDegUDBD (Listeria monocytogenes ATCC 15313, UniProt Q6DL91 159-228); assay: fluorescence polarization; details: protein: recombinant; tags: N-terminal His6 removed by thrombin; chain copies: 2; blunt
T1 sequence: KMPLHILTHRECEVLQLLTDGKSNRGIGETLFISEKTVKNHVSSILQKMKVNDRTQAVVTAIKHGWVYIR

lmDegUFL = lmDegUFL (Listeria monocytogenes ATCC 15313, UniProt Q6DL91 1-228); assay: fluorescence polarization; unphosphorylated; details: protein: recombinant; tags: C-terminal His6; chain copies: 2; blunt
lmDegUFL D55E = lmDegUFL D55E (Listeria monocytogenes ATCC 15313, UniProt Q6DL91 1-228, D55E); assay: fluorescence polarization; affinity not significantly changed vs lmDegUFL; details: protein: recombinant; tags: C-terminal His6; chain copies: 2; blunt
lmDegURD = lmDegURD (Listeria monocytogenes ATCC 15313, UniProt Q6DL91 1-143); assay: EMSA; no shift; details: protein: recombinant; tags: N-terminal His6 removed by TEV; chain copies: 2; blunt

Molecule: DNA-binding domain of Listeria monocytogenes DegU (lmDegUDBD) (from UniProt Q6DL91 159-228) (domain or fragment)
- stoichiometry N [1]: 2
- stoichiometry N [2]: 2

B1: fliN-gmaR operator 36-bp dsDNA, fluorescein (dsDNA)
DNA 1: CGAGTAGGTCAAAAGGATTGGGTATGAAGAACCTTT
DNA 2: AAAGGTTCTTCATACCCAATCCTTTTGACCTACTCG
- binding result (lmDegUFL D55N): binds
- Kd (lmDegUDBD): 6.7 ± 2.3 µM
- Kd (lmDegUFL): 0.173 ± 0.026 µM
- binding result (lmDegUFL D55E): binds

B2: fliN-gmaR operator 36-bp dsDNA, unlabeled (dsDNA)
DNA 1: B1 DNA 1
DNA 2: B1 DNA 2
- binding result (lmDegURD): no binding
